Biological target: T1, GST-RhoB(17A), nucleotide free RhoB mutant (UniProt P62745 1-196, G17A)
T1 construct: RhoB, small GTPase of the Rho family, with the nucleotide-free mutation G17A; also called nucleotide-free mutant of RhoB; nucleotide-free Rho mutants (G17A)
Assay: pull-down; 20 ug purified GST-RhoB(17A) on glutathione-sepharose beads, incubated with clarified MCF-7 lysates for 60 min at 4 C; cells mock-treated or irradiated with 5 Gy (also 400 uM 5-FU for 72 h); immunoblot for the GEFs
Conditions: one partner purified

T1 sequence (P62745 whole entry G17A): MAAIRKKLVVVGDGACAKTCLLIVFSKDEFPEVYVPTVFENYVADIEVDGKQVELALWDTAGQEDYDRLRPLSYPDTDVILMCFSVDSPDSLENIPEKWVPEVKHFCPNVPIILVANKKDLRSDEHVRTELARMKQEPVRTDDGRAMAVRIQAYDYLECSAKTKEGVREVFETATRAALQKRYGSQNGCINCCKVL

Row | fold increase in binding after IR over mock-treated [fold] | Binder
1 | ≥ 5 | neuroepithelial transforming gene 1 (Net1) (natural protein, human (endogenous in MCF-7 and HeLa), UniProt Q7Z628 1-596, looked up, Net1, nuclear guanine nucleotide exchange factor, endogenous in human cancer cell lines, detected by immunoblot; source: endogenous, MCF-7 lysate; endogenous, HeLa lysate) MEPELAAQKQPRPRRRSRRASGLSTEGATGPSADTSGSELDGRCSLRRGSSFTFLTPGPNWDFTLKRKRREKDDDVVSLSSLDLKEPSNKRVRPLARVTSLANLISPVRNGAVRRFGQTIQSFTLRGDHRSPASAQKFSSRSTVPTPAKRRSSALWSEMLDITMKESLTTREIRRQEAIYEMSRGEQDLIEDLKLARKAYHDPMLKLSIMSEEELTHIFGDLDSYIPLHEDLLTRIGEATKPDGTVEQIGHILVSWLPRLNAYRGYCSNQLAAKALLDQKKQDPRVQDFLQRCLESPFSRKLDLWSFLDIPRSRLVKYPLLLKEILKHTPKEHPDVQLLEDAILIIQGVLSDINLKKGESECQYYIDKLEYLDEKQRDPRIEASKVLLCHGELRSKSGHKLYIFLFQDILVLTRPVTRNERHSYQVYRQPIPVQELVLEDLQDGDVRMGGSFRGAFSNSEKAKNIFRIRFHDPSPAQSHTLQANDVFHKQQWFNCIRAAIAPFQSAGSPPELQGLPELHEECEGNHPSARKLTAQRRASTVSSVTQVEVDENAYRCGSGMQMAEDSKSLKTHQTQPGIRRARDKALSGGKRKETLV
2 | ≥ 5 | epithelial cell transforming sequence 2 (Ect2) (natural protein, human (endogenous in MCF-7 and HeLa), UniProt Q9H8V3 1-914, looked up, Ect2, nuclear guanine nucleotide exchange factor, endogenous in human cancer cell lines, detected by immunoblot (sc-1005); source: endogenous, MCF-7 lysate; endogenous, HeLa lysate) MAENSVLTSTTGRTSLADSSIFDSKVTEISKENLLIGSTSYVEEEMPQIETRVILVQEAGKQEELIKALKTIKIMEVPVIKIKESCPGKSDEKLIKSVINMDIKVGFVKMESVEEFEGLDSPEFENVFVVTDFQDSVFNDLYKADCRVIGPPVVLNCSQKGEPLPFSCRPLYCTSMMNLVLCFTGFRKKEELVRLVTLVHHMGGVIRKDFNSKVTHLVANCTQGEKFRVAVSLGTPIMKPEWIYKAWERRNEQDFYAAVDDFRNEFKVPPFQDCILSFLGFSDEEKTNMEEMTEMQGGKYLPLGDERCTHLVVEENIVKDLPFEPSKKLYVVKQEWFWGSIQMDARAGETMYLYEKANTPELKKSVSMLSLNTPNSNRKRRRLKETLAQLSRETDVSPFPPRKRPSAEHSLSIGSLLDISNTPESSINYGDTPKSCTKSSKSSTPVPSKQSARWQVAKELYQTESNYVNILATIIQLFQVPLEEEGQRGGPILAPEEIKTIFGSIPDIFDVHTKIKDDLEDLIVNWDESKSIGDIFLKYSKDLVKTYPPFVNFFEMSKETIIKCEKQKPRFHAFLKINQAKPECGRQSLVELLIRPVQRLPSVALLLNDLKKHTADENPDKSTLEKAIGSLKEVMTHINEDKRKTEAQKQIFDVVYEVDGCPANLLSSHRSLVQRVETISLGEHPCDRGEQVTLFLFNDCLEIARKRHKVIGTFRSPHGQTRPPASLKHIHLMPLSQIKKVLDIRETEDCHNAFALLVRPPTEQANVLLSFQMTSDELPKENWLKMLCRHVANTICKADAENLIYTADPESFEVNTKDMDSTLSRASRAIKKTSKKVTRAFSFSKTPKRALRRALMTSHGSVEGRSPSSNDKHVMSRLSSTSSLAGIPSPSLVSLPSFFERRSHTLSRSTTHLI

From article PMC3044157, “The Nuclear Guanine Nucleotide Exchange Factors Ect2 and Net1 Regulate RhoB-Mediated Cell Death after DNA Damage” (PLoS ONE, 2011)
